Source: patent publication US20170014494

Tested on: flag-tagged SUMO1
Sequence (chain, as listed by the source): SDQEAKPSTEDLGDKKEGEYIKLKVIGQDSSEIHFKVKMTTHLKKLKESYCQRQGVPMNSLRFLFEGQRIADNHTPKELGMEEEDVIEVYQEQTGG

## SERCA2a wild type (WT), expressed from a plasmid in HEK293 cells
  Vmax of Ca2+-dependent ATPase activity of WT SERCA2a with co-expression of SUMO1: 98.58 ± 1.83 nmol/min/mg
